This passage reports percent co-depleted results from article PMC3458572.

Like-named read-outs stand apart in the source and are kept apart here.

Holding throughout (assay): immunodepletion
For experiment [1], the target named is Xenopus laevis FANCI, extract-endogenous (Xenopus laevis (endogenous in egg extract)) (UniProt D2JYR7).
Experiment [2] deals with Xenopus laevis FANCD2, extract-endogenous, non-ubiquitinated (Xenopus laevis (endogenous in egg extract)).
The target is the same in experiment [3]. This is another data set of the same source.

In experiment [1], “Xenopus laevis FANCD2, extract-endogenous, non-ubiquitinated (natural protein)” had a percent co-depleted of 80%.
On to “Xenopus laevis FANCI, extract-endogenous (from UniProt D2JYR7 1-1337) (natural protein)”, for which the percent co-depleted in experiment [2] and in experiment [3] was 80% each time.
